These results are taken from US20080102072A1.

Experiment [1] addresses human IFNAR1, membrane receptor on cells (U266 human myeloma cells; Hela and A549 cells in the functional assays) (human) (UniProt P17181). Briefly: flow cytometry on U266 cells, F-mAb preincubated with competitor: 10 µg soluble wild type hIFNAR1-IgG. Background: A flow cytometer gives signals particle by particle.
Experiment [2] deals with hIFNAR1 ECD-IgG fusion protein (immunoadhesin, pRK5 hIFNAR1-IgG clone 53.65), wild type (human). Briefly: competitive radioimmunoprecipitation with 125I-hIFNAR1-IgG and unlabeled hIFNAR1-IgG, Scatchard analysis.
Sequence of hIFNAR1 ECD-IgG fusion protein (immunoadhesin, pRK5 hIFNAR1-IgG clone 53.65), wild type (human) (chain, as listed by the source limits assumed): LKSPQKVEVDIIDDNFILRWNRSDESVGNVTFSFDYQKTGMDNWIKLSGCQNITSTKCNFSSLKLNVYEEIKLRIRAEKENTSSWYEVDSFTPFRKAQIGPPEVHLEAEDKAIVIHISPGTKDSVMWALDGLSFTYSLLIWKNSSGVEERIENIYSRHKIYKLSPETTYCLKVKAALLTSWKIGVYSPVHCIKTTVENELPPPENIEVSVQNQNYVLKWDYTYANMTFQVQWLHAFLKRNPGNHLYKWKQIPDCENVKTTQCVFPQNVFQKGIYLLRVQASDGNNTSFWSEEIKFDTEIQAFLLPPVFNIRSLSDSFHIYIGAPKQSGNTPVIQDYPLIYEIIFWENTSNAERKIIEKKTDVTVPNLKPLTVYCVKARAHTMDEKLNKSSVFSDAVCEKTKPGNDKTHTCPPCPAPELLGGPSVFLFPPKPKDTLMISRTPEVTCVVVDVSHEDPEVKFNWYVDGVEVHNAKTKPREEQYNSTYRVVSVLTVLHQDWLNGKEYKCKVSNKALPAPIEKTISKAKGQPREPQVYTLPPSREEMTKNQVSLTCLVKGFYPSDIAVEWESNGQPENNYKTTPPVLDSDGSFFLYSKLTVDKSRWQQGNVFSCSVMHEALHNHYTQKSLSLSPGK
In experiment [3] the target is human IFNAR1, membrane receptor on cells (U266 human myeloma cells; Hela and A549 cells in the functional assays) (human) (UniProt P17181). Briefly: cell-based or functional assay.
For experiment [4] the target is unchanged. Briefly: flow cytometry on U266 cells, F-mAb preincubated with competitor: 10 µg soluble hIFNAR1-IgG Mutant #7 (244-249).
For experiment [5], the target named is IFNAR1-IgG single alanine mutant D296A (human). As to the kind of experiment: capture ELISA, single alanine mutant IFNAR1-IgG captured by goat anti-hIgG-Fc; OD as % of wild type IFNAR1-IgG.
The target in experiment [6] is IFNAR1-IgG single alanine mutant K247A (human). Described as above.
Experiment [7] concerns the target IFNAR1-IgG single alanine mutant R74A (human). The experiment is described as above.
The target of experiment [8] is IFNAR1-IgG single alanine mutant E298A (human). The description is as above.
Experiment [9] addresses IFNAR1-IgG single alanine mutant E69A (human). The description is as above.
For experiment [10], the target named is IFNAR1-IgG single alanine mutant E292A (human). The experiment is described as above.
Sequence of IFNAR1-IgG single alanine mutant E292A (human) (chain, as listed by the source E292A E292A limits assumed): as the sequence (chain, as listed by the source limits assumed) above, with E292A counted along it
In experiment [11] the target is IFNAR1-IgG single alanine mutant E291A (human). The experiment is described as above.
Sequence of IFNAR1-IgG single alanine mutant E291A (human) (chain, as listed by the source E291A E291A limits assumed): as the sequence (chain, as listed by the source limits assumed) above, with E291A counted along it
Experiment [12] has as its target IFNAR1-IgG single alanine mutant K72A (human). Described as above.
Experiment [13] deals with IFNAR1-IgG single alanine mutant K294A (human). The experiment is described as above.
For experiment [14], the target named is IFNAR1-IgG single alanine mutant H244A (human). Described as above.
Sequence of IFNAR1-IgG single alanine mutant H244A (human) (chain, as listed by the source H244A H244A limits assumed): as the sequence (chain, as listed by the source limits assumed) above, with H244A counted along it
For experiment [15], the target named is IFNAR1-IgG single alanine mutant K249A (human). Described as above.
For experiment [16], the target named is IFNAR1-IgG single alanine mutant E70A (human). The description is as above.
In experiment [17] the target is human IFNAR1, membrane receptor on cells (U266 human myeloma cells; Hela and A549 cells in the functional assays) (human) (UniProt P17181). Briefly: flow cytometry on U266 cells, F-mAb preincubated with competitor: 10 µg soluble hIFNAR1-IgG Mutant #8 (291-298).
Experiment [18] has the same target. As to the kind of experiment: flow cytometry on U266 cells, fluoresceinated mAb 1 µg/100 µl, no soluble hIFNAR1.
The target of experiment [19] is IFNAR1-IgG multiple alanine mutant 1, residues 19-25 (RWNRSDE to AWNASAA) (human). As to the kind of experiment: capture ELISA, mutant IFNAR1-IgG captured by goat anti-hIgG-Fc, mAb 10 µg/ml; OD as % of wild type IFNAR1-IgG.
Experiment [20] has as its target IFNAR1-IgG multiple alanine mutant 6, residues 157-162 (RHKIYK to AAAIYA) (human). The description is as above.
In experiment [21] the target is IFNAR1-IgG multiple alanine mutant 2, residues 69-74 (EEIKLR to AAIALA) (human). The experiment is described as above.
The target in experiment [22] is IFNAR1-IgG multiple alanine mutant 10, residues 383-388 (DEKLNK to AAALNA) (human). The experiment is described as above.
Sequence of IFNAR1-IgG multiple alanine mutant 10, residues 383-388 (DEKLNK to AAALNA) (human) (chain, as listed by the source mutant limits assumed): as the sequence (chain, as listed by the source limits assumed) above, with D383A, E384A, K385A, K388A counted along it
For experiment [23], the target named is IFNAR1-IgG multiple alanine mutant 7, residues 244-249 (HLYKWK to ALYAWA) (human). The description is as above.
The target in experiment [24] is IFNAR1-IgG multiple alanine mutant 4, residues 103-111 (… to …) (human). Described as above.
Sequence of IFNAR1-IgG multiple alanine mutant 4, residues 103-111 (… to …) (human) (chain, as listed by the source mutant limits assumed): as the sequence (chain, as listed by the source limits assumed) above, with E103A, H105A, E107A, E109A, D110A, K111A counted along it
The target in experiment [25] is IFNAR1-IgG multiple alanine mutant 8, residues 291-298 (EEIKFDTE to AAIAFATA) (human). Described as above.
Experiment [26] concerns the target IFNAR1-IgG multiple alanine mutant 9, residues 352-359 (ERKIIEKK to AAAIIAAA) (human). The description is as above.
The target of experiment [27] is IFNAR1-IgG multiple alanine mutant 5, residues 148-152 (EERIE to AAAIA) (human). The experiment is described as above.
In experiment [28] the target is IFNAR1-IgG multiple alanine mutant 3, residues 76-80 (RAEKE to AAAAA) (human). Described as above.
Experiment [29] concerns the target human IFNAR1, membrane receptor on cells (U266 human myeloma cells; Hela and A549 cells in the functional assays) (human) (UniProt P17181). Briefly: flow cytometry on U266 cells, fluoresceinated control IgG, no soluble hIFNAR1.

Sequence of UniProt P17181 (P17181 28-557): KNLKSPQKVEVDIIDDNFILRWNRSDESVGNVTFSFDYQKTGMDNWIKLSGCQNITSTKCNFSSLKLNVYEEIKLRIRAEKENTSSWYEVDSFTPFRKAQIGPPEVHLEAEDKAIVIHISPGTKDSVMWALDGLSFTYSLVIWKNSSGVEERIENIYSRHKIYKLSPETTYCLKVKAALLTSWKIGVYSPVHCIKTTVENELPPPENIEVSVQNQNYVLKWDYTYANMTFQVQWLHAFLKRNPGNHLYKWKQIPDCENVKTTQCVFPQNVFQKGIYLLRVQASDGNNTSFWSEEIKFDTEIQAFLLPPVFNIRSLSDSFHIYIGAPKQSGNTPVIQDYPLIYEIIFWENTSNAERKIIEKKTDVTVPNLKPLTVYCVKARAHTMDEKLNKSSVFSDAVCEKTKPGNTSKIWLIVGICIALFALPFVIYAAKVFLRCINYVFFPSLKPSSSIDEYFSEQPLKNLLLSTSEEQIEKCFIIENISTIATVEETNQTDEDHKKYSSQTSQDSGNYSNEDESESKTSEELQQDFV
Sequence of IFNAR1-IgG multiple alanine mutant 9, residues 352-359 (ERKIIEKK to AAAIIAAA) (human) (chain, as listed by the source mutant limits assumed): as the sequence (chain, as listed by the source limits assumed) above, with E352A, R353A, K354A, E357A, K358A, K359A counted along it

Take “anti-hIFNAR1 monoclonal antibody 2E8 (hybridoma ATCC HB 12130)”: the Mean Fluorescence Intensity in experiment [1] turned out to be 3.16; in experiment [4], 3.27; in experiment [17], 7.6; in experiment [18] it was 7.96. In addition, in experiment [2], the Kd worked out at 0.097 nM. In experiment [3], this substance registered an EC50 of mAb neutralizing the anti-viral cytopathic effect of 10 units/ml IFNα1 on A549 cells (EMC virus) of more than 30 µg/mL. In addition, the EC50 of mAb neutralizing the anti-viral cytopathic effect of 10 units/ml IFNα2/1 on A549 cells (EMC virus) in experiment [3] is more than 30 µg/mL. Further, the EC50 of mAb neutralizing the anti-viral cytopathic effect of 10 units/ml IFNα2 on A549 cells (EMC virus) in experiment [3] was more than 30 µg/mL. Also, the EC50 of mAb neutralizing the anti-viral cytopathic effect of 10 units/ml IFNα5 on A549 cells (EMC virus) in experiment [3] was more than 30 µg/mL. Besides, the EC50 of mAb neutralizing the anti-viral cytopathic effect of 10 units/ml IFNα8 on A549 cells (EMC virus) in experiment [3] is more than 30 µg/mL. Further, the EC50 of mAb neutralizing the anti-viral cytopathic effect of 10 units/ml IFNβ on A549 cells (EMC virus) in experiment [3] was more than 30 µg/mL. Further, the % Wild type binding of mAbs in experiment [5] was determined as 3%; in experiment [6], 66%; in experiment [7], 53%; in experiment [8] it was 31%; in experiment [9], 72%; in experiment [10], 29%. Further, the % Wild type binding of mAbs in [11] was found to be 3%; in [12], 89%; in [13] it was 54%; in [14], 96%; in experiment [15] it was 54%; in [16], 80%. In addition, the % Wild type binding of mAbs in [19] was determined as 84%; in experiment [20] it was 77%; in experiment [21], 18%; in experiment [22], 116%; in experiment [23], 77%; in [24], 33%. Moreover, the % Wild type binding of mAbs worked out at 0% in experiment [25], 81% in experiment [26], 43% in [27] and 69% in [28].
For “anti-hIFNAR1 monoclonal antibody 4A7 (hybridoma ATCC HB 12132)”, the Mean Fluorescence Intensity came out at 2.45 in experiment [1], 2.95 in [4], 3.16 in experiment [17] and 9.49 in experiment [18]. In addition, in experiment [2], the Kd came out at 0.052 nM. In [3], the EC50 of mAb neutralizing the anti-viral cytopathic effect of 10 units/ml IFNα1 on A549 cells (EMC virus) was determined as 10 µg/mL. The same substance gave an EC50 of mAb neutralizing the anti-viral cytopathic effect of 10 units/ml IFNα2/1 on A549 cells (EMC virus) in [3] of 20 µg/mL. This substance registered an EC50 of mAb neutralizing the anti-viral cytopathic effect of 10 units/ml IFNα2 on A549 cells (EMC virus) in experiment [3] of 10 µg/mL. In [3], this substance registered an EC50 of mAb neutralizing the anti-viral cytopathic effect of 10 units/ml IFNα5 on A549 cells (EMC virus) of 6 µg/mL. In experiment [3], this substance gave an EC50 of mAb neutralizing the anti-viral cytopathic effect of 10 units/ml IFNα8 on A549 cells (EMC virus) of 3 µg/mL. In experiment [3], the EC50 of mAb neutralizing the anti-viral cytopathic effect of 10 units/ml IFNβ on A549 cells (EMC virus) is more than 30 µg/mL. The % Wild type binding of mAbs in experiment [5] worked out at 53%; in [6], 86%; in [7], 30%; in experiment [8] it was 60%; in experiment [9] it was 69%; in experiment [10], 58%. The % Wild type binding of mAbs in experiment [11] was found to be 58%; in experiment [12], 91%; in [13], 69%; in experiment [14], 96%; in experiment [15], 73%; in [16] it was 85%. For the same substance, the % Wild type binding of mAbs in [19] amounted to 95%; in [20], 100%; in experiment [21], 0%; in experiment [22], 103%; in [23] it was 106%; in experiment [24] it was 80%. Moreover, the % Wild type binding of mAbs in experiment [25] was found to be 96%; in experiment [26], 101%; in experiment [27], 90%; in experiment [28], 92%.
In experiment [29], control IgG (antibody) yielded a Mean Fluorescence Intensity of 2.99.

In general, Kd refers to the constant that tells how readily two partners part at equilibrium.
